The target in this test is PCSK9 S123R (human) (UniProt Q8NBP7). Description: Luminex bead assay.

B1: 21B12 (isotype as tested not stated) (antibody, V domains shown)
VH: QVQLVQSGAEVKKPGASVKVSCKASGYTLTSYGISWVRQAPGQGLEWMGWVSFYNGNTNYAQKLQGRGTMTTDPSTSTAYMELRSLRSDDTAVYYCARGYGMDVWGQGTTVTVSS
VL: QSALTQPASVSGSPGQSITISCTGTSSDVGGYNSVSWYQQHPGKAPKLMIYEVSNRPSGVSNRFSGSKSGNTASLTISGLQAEDEADYYCNSYTSTSMVFGGGTKLTVL
On to B1, for which the BmaxPerWT (% of wild type) was 87.6 and the RawMaxPerWT (% of wild type) turned out to be 88.1.

For the origin of these results see patent publication US20140357851A1.
